This note sets out measurements from paper PMC4728063.

The target in this assay is T1, RS1 (retinoschisin), human, recombinant, secreted from Sf21 insect cells (human), O15537.
T1 chain: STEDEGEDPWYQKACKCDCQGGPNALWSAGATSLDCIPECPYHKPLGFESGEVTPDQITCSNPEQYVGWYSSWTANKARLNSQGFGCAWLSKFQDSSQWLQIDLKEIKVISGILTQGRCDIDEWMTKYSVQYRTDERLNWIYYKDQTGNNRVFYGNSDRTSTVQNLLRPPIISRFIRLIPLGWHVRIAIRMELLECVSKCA
Kind of assay: negative stain single particle electron microscopy; purified RS1 adsorbed to glow discharged carbon-coated copper grids, stained with 0.75% uranyl formate; 2D classification (SPIDER) and 3D reconstruction (EMAN2, RELION, D8 symmetry enforced). The conditions noted are these: remark: other sources report otherwise.

B1: RS1 (retinoschisin), human, recombinant, secreted from Sf21 insect cells, O15537 24-224 (natural protein)
chain: T1 chain
For B1, the stoichiometry N (in general, a count of units in the complex or per binding partner) stood at 8.
